In paper PMC4109681 (Molecular cell, 2013):

T1: purified Hrd1p^321-551, containing its RING finger domain (Saccharomyces cerevisiae, UniProt Q08109 321-551)
T1 sequence (looked up): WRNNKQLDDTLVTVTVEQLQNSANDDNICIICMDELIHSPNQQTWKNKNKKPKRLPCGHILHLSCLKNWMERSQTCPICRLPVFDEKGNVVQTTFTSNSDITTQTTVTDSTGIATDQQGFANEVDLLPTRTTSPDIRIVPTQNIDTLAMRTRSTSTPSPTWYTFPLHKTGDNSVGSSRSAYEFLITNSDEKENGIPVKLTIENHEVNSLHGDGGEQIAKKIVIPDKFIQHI

B1: ^15N-Ubc7p (from pET3a-GB1-His6-Thrombin-Ubc7p) (enzyme, Saccharomyces cerevisiae, UniProt Q02159 1-165, looked up)
chain: MSKTAQKRLLKELQQLIKDSPPGIVAGPKSENNIFIWDCLIQGPPDTPYADGVFNAKLEFPKDYPLSPPKLTFTPSILHPNIYPNGEVCISILHSPGDDPNMYELAEERWSPVQSVEKILLSVMSMLSEPNIESGANIDACILWRDNRPEFERQVKLSILKSLGF
modifications: 15N-labelled
B2: Ubc7p:U7BR complex (for NMR titration) (complex, Saccharomyces cerevisiae)
chain 1: B1 chain
chain 2: LLDKFHVDLNEDMSNLSFKDLDIEERKRLLVWQARKNLETKLQSDKDLQSLLT
modifications: 15N-labelled
B3: purified Doa10p^1-112 RING fragment (domain or fragment, Saccharomyces cerevisiae, UniProt P40318 1-112, looked up)
chain: MDVDSDVNVSRLRDELHKVANEETDTATFNDDAPSGATCRICRGEATEDNPLFHPCKCRGSIKYMHESCLLEWVASKNIDISKPGADVKCDICHYPIQFKTIYAENMPEKIP

How the values were obtained:
[1] = biological target: GST-Cue1p^151-203 U7BR^m4 (Saccharomyces cerevisiae) (UniProt P38428); assay: pull-down
[2] = biological target: T1, purified Hrd1p^321-551, containing its …; assay: NMR titration
^15N-Ubc7p (from …) = biological target: B1; assay: NMR titration
[3] = biological target: B2; assay: NMR titration

In the case of “in vitro transcribed and translated ^35S-labeled Ubc7p (from UniProt Q02159 1-165) (enzyme)”, the loss of binding against wild-type [1] is reported as 40%.

In the case of B1, the Kd [2] is reported as 107 µM.

For B2, the Kd [2] was 13.4 µM.

B3: binds (^15N-Ubc7p (from …)); binds [3].
